Test results taken from article PMC11548041.
pKd: −log10 of the molar value.

Molecular target: T1, EpCAM (endogenous on HuCCT1 cells) (UniProt P16422)
T1 sequence: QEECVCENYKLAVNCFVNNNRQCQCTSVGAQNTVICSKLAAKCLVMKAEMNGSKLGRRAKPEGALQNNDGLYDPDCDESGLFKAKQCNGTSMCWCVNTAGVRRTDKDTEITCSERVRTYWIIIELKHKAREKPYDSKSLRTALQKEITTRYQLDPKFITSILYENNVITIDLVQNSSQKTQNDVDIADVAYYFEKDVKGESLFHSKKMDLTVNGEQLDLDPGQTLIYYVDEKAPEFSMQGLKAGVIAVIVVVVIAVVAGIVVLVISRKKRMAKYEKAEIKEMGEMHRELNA
Assay: flow cytometry on HuCCT1 cells
Conditions: Whole cells, 30 min on ice, HuCCT1 biotin block in PBS + 0.2% NaN3, 2.5 mM MgCl2, 0.1 mg/mL yeast total RNA (aptamer binding buffer not separately stated) …

Sequence | pKd (phosphorothioate (marked * in Table 2): C*A*C*ACTTCTAAGAGGG*AACAGACGTCGATCTTTGCGGAACT*CCTG*C*G) | pKd (phosphorothioate (marked * in Table 2): G*A*C*CCACGGAGGTTG*CGTCCGTG*GGGG*A*C)
CACACTTCTAAGAGGGAACAGACGTCGATCTTTGCGGAACTCCTGCG [PLD01 (B-aptamer)] | 6.75 | 
GACCCACGGAGGTTGCGTCCGTGGGGGAC [PLD02 (B-aptamer)] |  | 6.63
